According to patent US20210171596A1 (published 2021):
Numbering of substitutions follows the chain as printed. In names and notes the source's numbering stands.

B1: XENP25768 (E151Q) (protein)
chain 1: EPKSSDKTHTCPPCPAPPVAGPSVFLFPPKPKDTLMISRTPEVTCVVVDVKHEDPEVKFNWYVDGVEVHNAKTKPREEEYNSTYRVVSVLTVLHQDWLNGKEYKCKVSNKALPAPIEKTISKAKGQPREPQVYTLPPSREEMTKNQVSLTCDVSGFYPSDIAVEWESDGQPENNYKTTPPVLDSDGSFFLYSKLTVDKSRWEQGDVFSCSVMHEALHNHYTQKSLSLSPGK
chain 2: SPGQGTQSENSCTHFPGNLPNMLRDLRDAFSRVKTFFQMKDQLDNLLLKESLLEDFKGYLGCQALSEMIQFYLEEVMPQAENQDPDIKAHVNSLGENLKTLRLRLRRCHRFLPCENGGGSGGKSKAVEQVKNAFNKLQEKGIYKAMSEFDIFINYIQAYMTMKIRNEPKSSDKTHTCPPCPAPPVAGPSVFLFPPKPKDTLMISRTPEVTCVVVDVKHEDPEVKFNWYVDGVEVHNAKTKPREEQYNSTYRVVSVLTVLHQDWLNGKEYKCKVSNKALPAPIEKTISKAKGQPREPQVYTLPPSREQMTKNQVKLTCLVKGFYPSDIAVEWESNGQPENNYKTTPPVLDSDGSFFLYSKLTVDKSRWQQGNVFSCSVMHEALHNHYTQKSLSLSPGK
B2: XENP25755 (Q38E) (protein)
chain 1: B1 chain 1
chain 2: B1 chain 2 with Q38E, Q157E
B3: XENP25767 (D144N) (protein)
chain 1: B1 chain 1
chain 2: B1 chain 2 with D150N, Q157E
B4: XENP25757 (D41N) (protein)
chain 1: B1 chain 1
chain 2: B1 chain 2 with D41N, Q157E

Molecular target: T1, IL10R1-Fc (human, UniProt Q13651 22-235)
T1 chain: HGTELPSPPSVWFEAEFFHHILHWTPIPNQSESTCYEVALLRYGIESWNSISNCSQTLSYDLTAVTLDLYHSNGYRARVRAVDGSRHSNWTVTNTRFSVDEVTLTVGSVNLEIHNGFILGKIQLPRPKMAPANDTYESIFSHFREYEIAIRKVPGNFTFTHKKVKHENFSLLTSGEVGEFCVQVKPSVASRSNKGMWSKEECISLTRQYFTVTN
Experiment: BLI; marked *

Binder | Kd [µM]
B1 | 0.0124
B2 | 0.00613
B3 | 0.0238
B4 | 0.0124
